# Measured values taken from PMC7248283.
# “And” between values parts separate entries of the source, which are not always exact repeats. Equal values may be shown once.
# Columns and labels:
# [1] = molecular target: GST-FliS (Helicobacter pylori (strain 26695)); test: pull-down; competitive: the same experiment as a5, for purified HP1076 added at molar ratios to GST-FliS of 0, 0.5:1, 5:1 and 50:1 in the presence of H. pylori lysate; read-out is the flagellin band
# [2] = molecular target: FliS-FlaBc complex (Helicobacter pylori (strain 26695) | Helicobacter pylori) (UniProt Q07911); test: MST; labelled FliS or FliS-FlaBc (40 nM) mixed with HP1076 (6.2 μM to 0.189 nM, or 3.83 mM to 117 μM); 20 mM Tris pH 7.5, 150 mM NaCl, 2 mM DTT; 21.5°C
# [3] = molecular target: FliS (flagellar export chaperone FliS of Helicobacter pylori), GST tag removed (Helicobacter pylori (strain 26695)); test: as above
binder,measurement,setting,value
His-HP1076 (natural protein) MDILKTLQKHLGDVETSDFTTNAIEKSQQIAKFSRDMKNINESVGALQVLQIACKKLFNKSMGLEDKDALQASIIKQELREIVENCQFLASPLFDTQLNIAINDEIFSMIVVNPLDLLENVGEFQAYLEEKLNEIKELLGYLSESLSNPKAFMPSFSNQSLKDLLSDNLRA,binding of flagellin (FlaA/FlaB band) to GST-FliS left when saturated by HP1076 (fraction of the binding without HP1076),[1],0.2 and 0.25
same,Kd,[2],1600 µM
same,Kd,[3],0.015 µM
